The values that follow come from the supplement of paper PMC9112550, “Optimization of the antimicrobial peptide Bac7 by deep mutational scanning” (BMC Biology, 2022).
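Further: peptides expressed intracellularly from a pBAD plasmid library in pooled LB shake-flask culture, induced with 0.3% L-arabinose, DNA abundance read by NGS, three biological replicates, DESeq2 with apeglm shrinkage.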

In the data set the test system is Escherichia coli TOP10. Briefly: shrunken log2 fold change of peptide-encoding DNA abundance (4.5 h post-induction vs induction); higher = less antimicrobial activity (less host growth inhibition). The note with it: time post-induction: 4.5 h; library: site-saturation at positions 5, 18, 19, 20.
Take RRIRWRPPRLPRPRPRPPINPRP: the “shrunken log2 fold change” value was -0.0948. The same measure for RRIRWRPPRLPRPRPRPSWVPRP: 0.0566; for RRIRGRPPRLPRPRPRPMMKPRP: 0.591; for RRIRSRPPRLPRPRPRPAFGPRP: 0.291. For the sequence RRIRSRPPRLPRPRPRPGRGPRP, the “shrunken log2 fold change” value was determined as 0.715.

On to RRIRNRPPRLPRPRPRPYINPRP, for which the “shrunken log2 fold change” value was -0.801.

On to RRIRRRPPRLPRPRPRPLVNPRP, for which the “shrunken log2 fold change” value was determined as 0.0359.

Regarding RRIRFRPPRLPRPRPRPGHIPRP, the “shrunken log2 fold change” value is -0.00306. As to RRIRWRPPRLPRPRPRPQYGPRP, the “shrunken log2 fold change” value is -0.442. RRIRERPPRLPRPRPRPHHNPRP: the “shrunken log2 fold change” value was -0.817. Consider RRIRNRPPRLPRPRPRPTWGPRP, for which the “shrunken log2 fold change” value is -0.00179.

Take RRIRTRPPRLPRPRPRPYVMPRP: the “shrunken log2 fold change” value was -1.53.

With RRIRIRPPRLPRPRPRPGQNPRP, the “shrunken log2 fold change” value is -0.0607. With RRIRDRPPRLPRPRPRPAHRPRP, the “shrunken log2 fold change” value was -0.0802.

In the case of RRIRSRPPRLPRPRPRPHDGPRP, the “shrunken log2 fold change” value is -0.01.

For the sequence RRIRARPPRLPRPRPRPNGCPRP, the “shrunken log2 fold change” value was -0.0858.

Regarding RRIRYRPPRLPRPRPRPLDKPRP, the “shrunken log2 fold change” value was -0.0449. The value for RRIRWRPPRLPRPRPRPANPPRP was 0.165; that for RRIRLRPPRLPRPRPRPCAMPRP was 0.00887; that for RRIRRRPPRLPRPRPRPMNKPRP was 0.0717. With RRIRHRPPRLPRPRPRPRVYPRP, the “shrunken log2 fold change” value was -0.0307. As for RRIRERPPRLPRPRPRPERCPRP, the “shrunken log2 fold change” value was 0.125.

As to RRIRQRPPRLPRPRPRPGSDPRP, the “shrunken log2 fold change” value worked out at 0.337. Consider RRIRCRPPRLPRPRPRPCDDPRP, for which the “shrunken log2 fold change” value was 0.0119. Turning to RRIRHRPPRLPRPRPRPPIDPRP, the “shrunken log2 fold change” value is 0.065. On to RRIRARPPRLPRPRPRPLTDPRP, for which the “shrunken log2 fold change” value worked out at 0.163.

For RRIRERPPRLPRPRPRPMWWPRP, the “shrunken log2 fold change” value is -0.298. For RRIRDRPPRLPRPRPRPLEWPRP, the “shrunken log2 fold change” value stood at 0.421.

Take RRIRARPPRLPRPRPRPTDTPRP: the “shrunken log2 fold change” value amounted to 0.535.

Regarding RRIRPRPPRLPRPRPRPQIFPRP, the “shrunken log2 fold change” value was -0.137.

Take RRIRNRPPRLPRPRPRPDKGPRP: the “shrunken log2 fold change” value is 0.00408. On to RRIRARPPRLPRPRPRPLTHPRP, for which the “shrunken log2 fold change” value was found to be 0.227. With RRIRQRPPRLPRPRPRPHRSPRP, the “shrunken log2 fold change” value was -0.00875. The same measure for RRIRVRPPRLPRPRPRPVAKPRP: 0.233; for RRIRVRPPRLPRPRPRPQYFPRP: -0.19. RRIRCRPPRLPRPRPRPWFRPRP: the “shrunken log2 fold change” value is -0.269. As to RRIRKRPPRLPRPRPRPIAHPRP, the “shrunken log2 fold change” value turned out to be 0.143. Regarding RRIRIRPPRLPRPRPRPAIQPRP, the “shrunken log2 fold change” value was -0.143. The same measure for RRIRQRPPRLPRPRPRPNNQPRP: -0.477; for RRIRNRPPRLPRPRPRPDQRPRP: 0.021; for RRIRRRPPRLPRPRPRPIPYPRP: -0.16. For RRIRNRPPRLPRPRPRPGVWPRP, the “shrunken log2 fold change” value was 0.474.

Turning to RRIRDRPPRLPRPRPRPFACPRP, the “shrunken log2 fold change” value is 0.107.

For RRIRYRPPRLPRPRPRPQHVPRP, the “shrunken log2 fold change” value was -1.14. Consider RRIRPRPPRLPRPRPRPSHTPRP, for which the “shrunken log2 fold change” value was -0.0343. For RRIRMRPPRLPRPRPRPVGDPRP, the “shrunken log2 fold change” value was found to be 0.173. Take RRIRTRPPRLPRPRPRPNTCPRP: the “shrunken log2 fold change” value is -0.395.

As to RRIRFRPPRLPRPRPRPTMPPRP, the “shrunken log2 fold change” value worked out at 0.0787. For RRIRYRPPRLPRPRPRPKHSPRP, the “shrunken log2 fold change” value was -0.875. The same measure for RRIRYRPPRLPRPRPRPVTWPRP: -0.207; for RRIRCRPPRLPRPRPRPEDAPRP: -0.0302. For RRIRSRPPRLPRPRPRPKYLPRP, the “shrunken log2 fold change” value is -0.756. Take RRIRHRPPRLPRPRPRPEVEPRP: the “shrunken log2 fold change” value was -0.00133. In the case of RRIRIRPPRLPRPRPRPFFCPRP, the “shrunken log2 fold change” value is -0.106.

As for RRIRARPPRLPRPRPRPQVPPRP, the “shrunken log2 fold change” value turned out to be 0.117. RRIRGRPPRLPRPRPRPMWHPRP: the “shrunken log2 fold change” value worked out at 0.441. With RRIRARPPRLPRPRPRPYCCPRP, the “shrunken log2 fold change” value was -0.181. The value for RRIRMRPPRLPRPRPRPCDYPRP was -0.163.

Turning to RRIRNRPPRLPRPRPRPSADPRP, the “shrunken log2 fold change” value worked out at 0.212. The same measure for RRIRHRPPRLPRPRPRPCRRPRP: -0.131. Take RRIRVRPPRLPRPRPRPSAVPRP: the “shrunken log2 fold change” value was -0.0662. With RRIRVRPPRLPRPRPRPYDGPRP, the “shrunken log2 fold change” value was -0.00822.

As for RRIRFRPPRLPRPRPRPAMDPRP, the “shrunken log2 fold change” value was -0.0614. Consider RRIRERPPRLPRPRPRPPMYPRP, for which the “shrunken log2 fold change” value is -0.458. On to RRIRARPPRLPRPRPRPWNWPRP, for which the “shrunken log2 fold change” value worked out at 0.376. As for RRIRMRPPRLPRPRPRPSERPRP, the “shrunken log2 fold change” value came out at 0.365. In the case of RRIRNRPPRLPRPRPRPSEDPRP, the “shrunken log2 fold change” value is -0.145. The same measure for RRIRYRPPRLPRPRPRPNQSPRP: -0.268.

On to RRIRERPPRLPRPRPRPEPEPRP, for which the “shrunken log2 fold change” value came out at 0.475. In the case of RRIRWRPPRLPRPRPRPYHPPRP, the “shrunken log2 fold change” value is -1.08.

Take RRIRNRPPRLPRPRPRPDGIPRP: the “shrunken log2 fold change” value stood at 0.0081. As for RRIRGRPPRLPRPRPRPRTHPRP, the “shrunken log2 fold change” value worked out at 0.666. With RRIRMRPPRLPRPRPRPEEEPRP, the “shrunken log2 fold change” value amounted to 0.0412. With RRIRRRPPRLPRPRPRPVFTPRP, the “shrunken log2 fold change” value stood at 0.188. With RRIRNRPPRLPRPRPRPYIVPRP, the “shrunken log2 fold change” value is -0.314. RRIRLRPPRLPRPRPRPIMQPRP: the “shrunken log2 fold change” value was -0.271. In the case of RRIRARPPRLPRPRPRPQNYPRP, the “shrunken log2 fold change” value was -0.1.

In the case of RRIRNRPPRLPRPRPRPDVHPRP, the “shrunken log2 fold change” value stood at 0.0115. Consider RRIRDRPPRLPRPRPRPTSQPRP, for which the “shrunken log2 fold change” value was 0.495.

With RRIRMRPPRLPRPRPRPRSFPRP, the “shrunken log2 fold change” value turned out to be 0.307. For the sequence RRIRHRPPRLPRPRPRPNMYPRP, the “shrunken log2 fold change” value was -0.963. As to RRIRYRPPRLPRPRPRPASCPRP, the “shrunken log2 fold change” value was -0.235.

Turning to RRIRGRPPRLPRPRPRPSVDPRP, the “shrunken log2 fold change” value is 0.861. Turning to RRIRPRPPRLPRPRPRPHECPRP, the “shrunken log2 fold change” value was -1.31. As for RRIRERPPRLPRPRPRPEIRPRP, the “shrunken log2 fold change” value was -0.163. On to RRIRSRPPRLPRPRPRPTLIPRP, for which the “shrunken log2 fold change” value was -0.0693. On to RRIRERPPRLPRPRPRPGMHPRP, for which the “shrunken log2 fold change” value worked out at 0.0491.

With RRIRPRPPRLPRPRPRPVQGPRP, the “shrunken log2 fold change” value is -0.0469. Consider RRIRDRPPRLPRPRPRPIPCPRP, for which the “shrunken log2 fold change” value is -0.0802. Turning to RRIRHRPPRLPRPRPRPYVFPRP, the “shrunken log2 fold change” value is -0.508. Regarding RRIRERPPRLPRPRPRPVRIPRP, the “shrunken log2 fold change” value was -0.0343. The value for RRIRHRPPRLPRPRPRPLAQPRP was 0.00325; that for RRIRWRPPRLPRPRPRPISDPRP was -0.154; that for RRIRTRPPRLPRPRPRPVEIPRP was -0.2. Take RRIRCRPPRLPRPRPRPKFVPRP: the “shrunken log2 fold change” value was -0.155. The same measure for RRIRLRPPRLPRPRPRPDVRPRP: 0.0235. RRIRVRPPRLPRPRPRPKCGPRP: the “shrunken log2 fold change” value was 0.0731. On to RRIRSRPPRLPRPRPRPHAHPRP, for which the “shrunken log2 fold change” value is -0.32. Regarding RRIRTRPPRLPRPRPRPNEKPRP, the “shrunken log2 fold change” value is -0.144.

On to RRIRCRPPRLPRPRPRPIYMPRP, for which the “shrunken log2 fold change” value was -1.29.

Turning to RRIRERPPRLPRPRPRPIVNPRP, the “shrunken log2 fold change” value was -0.0349.

Turning to RRIRDRPPRLPRPRPRPECEPRP, the “shrunken log2 fold change” value was determined as 1.53. Consider RRIRWRPPRLPRPRPRPRQRPRP, for which the “shrunken log2 fold change” value is 0.957. For the sequence RRIRWRPPRLPRPRPRPQTGPRP, the “shrunken log2 fold change” value is -0.000887. As to RRIRPRPPRLPRPRPRPAHRPRP, the “shrunken log2 fold change” value amounted to 0.384. As to RRIRWRPPRLPRPRPRPEYTPRP, the “shrunken log2 fold change” value amounted to 0.166. The value for RRIRCRPPRLPRPRPRPFIEPRP was 0.184; that for RRIRKRPPRLPRPRPRPDEKPRP was 0.411. As for RRIRSRPPRLPRPRPRPYNDPRP, the “shrunken log2 fold change” value was -0.41. As for RRIRWRPPRLPRPRPRPKGLPRP, the “shrunken log2 fold change” value is -0.0645. Regarding RRIRPRPPRLPRPRPRPSVTPRP, the “shrunken log2 fold change” value was -0.385. Consider RRIRGRPPRLPRPRPRPWRQPRP, for which the “shrunken log2 fold change” value was determined as 0.0568.

For the sequence RRIRGRPPRLPRPRPRPPEYPRP, the “shrunken log2 fold change” value came to 0.448. On to RRIRTRPPRLPRPRPRPIRRPRP, for which the “shrunken log2 fold change” value worked out at 0.0581. Turning to RRIRGRPPRLPRPRPRPQQAPRP, the “shrunken log2 fold change” value is -0.0245. Consider RRIRHRPPRLPRPRPRPYHMPRP, for which the “shrunken log2 fold change” value was -0.0151. For the sequence RRIRCRPPRLPRPRPRPVNYPRP, the “shrunken log2 fold change” value is -0.376. Consider RRIRHRPPRLPRPRPRPVMSPRP, for which the “shrunken log2 fold change” value is -0.0285.

As for RRIRKRPPRLPRPRPRPQDNPRP, the “shrunken log2 fold change” value was -0.0637. The value for RRIRVRPPRLPRPRPRPWDSPRP was -0.181.

On to RRIRSRPPRLPRPRPRPFALPRP, for which the “shrunken log2 fold change” value is -0.0971. In the case of RRIRNRPPRLPRPRPRPRWYPRP, the “shrunken log2 fold change” value was -0.194.

As to RRIRYRPPRLPRPRPRPKMHPRP, the “shrunken log2 fold change” value is -0.561. For the sequence RRIRCRPPRLPRPRPRPPGMPRP, the “shrunken log2 fold change” value is 0.326.

As to RRIRYRPPRLPRPRPRPTDPPRP, the “shrunken log2 fold change” value was -0.107.
